Experimental findings from a protein production outcome set (Wang et al. 2014) are described below.

The nature of this series: label from the status in PepcDB records.
For the sequence “MKQGPSSEDDCFSLLKQFEHVLESDPLIDEVGFIHPSQFTMLDKEAGFSNEFQPNNGTSSKFWNQDHKLGISTDILVQLCKDAKHVFLLALQEYKSHGNACDESQIKNISCSPCIPESDVMKHSQSVLLLSSDFGTAWNARKLILSKKDHLSAFTEELRLSGLILSNSPKSESTWSHRRWIIKMISQSFSTLQEIITKESELVESIGERSKMNYRAWYHRCWLVSYMTIEQVIQELNKSKRWAGLHVADSSCFHYRRVRAAYSVDVIVRLMLKILESLYVKGSSAYDKTEARKIWKEELDWNEELVERYVGREALWLHRRFLSLNWIMYFACNHSDASPETGESIIMNEEIAIFIDNEIRLLDSSMTVPDTKFEDFQAQALHAAVYTLWLTKSIPVLWRMLEEKLGTEKVKCVLNTIAQERPSLLHHLVNV”, the protein production result was “failed”.

“MFHVSFRYIFGLPPLILVLLPVASSDCDIEGKDGKQYESVLMVSIDQLLDSMKEIGSNCLNNEFNFFKRHICDANKEGMFLFRAARKLRQFLKMNSTGDFDLHLLKVSEGTTILLNCTGQVKGRKPAALGEAQPTKSLEENKSLKEQKKLNDLCFLKRLLQEIKTCWNKILMGTKEH”: the protein production result is “failed”.

In the case of “LVPLESDLSRAADLLNAGRKVAILAGRGALEAKEALRETAELLGAPVAKALLGKAVLPDDDPLTTGGIGILGTAPSQEIMQQCDTLLIIGSTFPYIEYYPRPNTAAGIQIDHDPQRIGLRYPVEVGLVGEAGETLRMLNKRLKRKQDRSFLERAQEQTRNWRRELRAMEGDRS”, the protein production entry is “failed”.

Consider “MPLAIIPWFELPSASLGPFTLQSFGVLSALGILAAVQLSARGAKQLGKDPQVILDFAVVGVLAGVVVGHLAHLFFYHPEELQDPLRIFKFWEGLSSMGGLAGGMIAAAVYFRRKRVRFTAYADAFALGVAPGWGIARVGCFTVHDHPGRLTDFFLAVRFPDGPRHDLGLYEAILLLSLGAVLWALHRRDVLRGRLLPLLALVYGIGRFLLDFLRATDVSYADARHLGLTFAQYFAVALVAYAVWGFARRPSDEERVRVSTGVGRR”, for which the protein production result was “failed”.

With “KPREEKRTALSKVVIRRLPPGLTKEQLEEQLRPLPAHDYFEFFAADLSLYPHLYSRAYINFRNPDDILLFRDRFDGYIFLDSKGLEYPAVVEFAPFQ”, the protein production entry is “failed”.

With “MQTLLPLLARGAVLSPFKRPRPDAAFPHSRLVLSGVRIDLARLAAYERACGFPTGADALPLTYPHVLGFPLAMRIMASRAFPLPLLGLVHTSIEVTRLREPAATGEYELAVHVEGLTPHRRGTEATVVTGARVDGSLVWESRSTYLARHRRATDARTPADARTATDARTPADARTATDARTAADARTAAPVPSAEPKPLPVVAEWRLAADVGRRYAAVSGDRNPIHLHPLTARLFGFPRAIAHGMWTVARCLAEQPADASVQLRAEFKSPVLLPGTVTYAADGGRFELRGGERVHLTGELREYRANSA”, the protein production result is recorded as “failed”.

Turning to “MKEIALLAIARYGDLIQTTPLVRALRRAHPGARITAIVEDRFCGILPLLPGIDRTIVLNKQDIAWDIATGDSPLVPYLKMDEFVRKLEEGSYDLLVNITCSRLSAFFASCVTSRRRTGISADEAGERNIVTLEHHHHHH”, the protein production result is reported as “failed”.

Consider “SKNEKEQLSKAKASVSSLNKVIQTKLTVGNLGLGLVVIQNGPYLQISHLINKGAAASDGILQPGDVLISVGHANVLGYTLREFLKLLQNITIGTVLQIKAYRGFLEIPQEWQD”, for which the protein production entry was “not failed”.

“EGRLVCTVRDMTDRRQKERALRHRSSAMEVASDGIAILDEAGTYQYVNQAHASIYGYDTPGALVGRSWTACYEEAEQQRLEAEAMAALEETGDWRGEARGVREDGSSFPQELTLTVLEDGSIVCVVRDITARKEDERELRSTKQYYEQILEKAVK”: the protein production result is reported as “failed”.

Take “GVLILHGFTANLESVRALFGPLGRFDLKMATPLLRGHGAASPDELRGVTWREWLDDAENAFETLTGTGGKAVVIGHSMGALLALQLAARRPELVDSVILATPPVRLTSPLGPGRPLHFLAPLVSHVVDRWDMEARFADPGSAIIPKQYDWAPTKTILSMFELLEETMRITGRVRVPALILQARHESVVLPESAEILTRAIATPPEAKSIVWFDKTDHQIFCDCERKAAVDAVVSFVSKRFP”: the protein production result was “failed”.

For the sequence “MTTPRPEYPRPHFDRSHSWLTLNGTWDFRADPAEAYSADASDGYDRAITVPFAWETPASGIAEHWLRTAWYRRTFTVPADWAGQRVVLHFGAVHHAATVWVNGTEVAHHEGGYTPFAADVTDALGDGEHQLTVRVHAPADKRDIAHGKQRSMPRDDYDGVCFTPSSGIWQSVWLEARPATHLAALRLRPNDDLTGITVEAVVHGPAADRAELRLRVRDEDTAVTATLDPDGRLATELPLSAPRLWSPEDPHLYHVDAELTSADGTDRVAAYTGLRTVTVDGESLYLNGRRLFVRGVLDQGYWPETGITAPDDAALRRDIELAAEAGYNLVRKHLKLEDPRFAHHADTLGMLLWAEPASPGRFSPASTAAFAEQIEPMVERDGNSPAIVIWGLYNEEWGLDWDIPGDPAKQRATADAYDRLKALDPTRPVVDNSGWTHVKTDLLDWHYYDESAASWATTVADLLSGERDDFPVKLGPDFVVRKKLAVPGQPLRGLPNLNSEYGGGFTGLDRAWHLRWQTQELRRHDRLAGYVYTELYDIEHESAGLLDFGRGAKDLAGVDPAHANAPTTLVLDVTPVAPGRDLLTTGPDFTVDVHVSHHGDDPVAGTVHTTWTPVYARTPDAPGDAVPGCRAEAKPYVLGAAVTVPAALPDGWTSGRLHLALVVDGTVAARTALDVDTRTDPYIGDDPQARPTA”, the protein production entry is listed as “failed”.

Consider “MTPVCAWIGSPGAKAQLSFAGRGHSTAKRRRGPAGEPAVPGEALPGARGSLKAHPKPWAAAMWARGCLHHIRVWFSWSQQGSGNGRSGWERLAREARGLWQLWCLPGTPNSSPLQTDM”, for which the protein production result is “failed”.

On to “MRVISGEYGGRRLKALDGDNTRPTTDKVKESIFNMIGPYFDGGMALDLYSGSGGLAIEAVSRGMDKSICIEKNFAALKVIKENIAITKEPEKFEVRKMDANRALEQFYEEKLQFDLVLLDPPYAKQEIVSQLEKMLERQLLTNEAVIVCETDKTVKLPETIGTLKKTRETVYGITQVTIYRQEA”, for which the protein production entry was “not failed”.

In the case of “MDTEMLIDKYQLNDSEAAVLRFMDKNRDCLKSLGIREVAKASYVSTTAIINMAKKIGYSGYSELVFAYGNKHSSISFPENFSNEEKDEFIRLLSRYREKRIMVLGSGFSQNIANHFSEMLNLYGFRATANSHLEFLRENVEKDVLIFIVSNSGDTLRLAELVKLAKNHHIDLIAFVGEKKSKIGQLATLTISTETYNPQVVSEYQPNLFFGTALNQFELLLSEALKSIFI”, the protein production entry is “not failed”.

For the sequence “MKGDRHCIVIIDMLNDFIGPNAPLRCPDGEKIVPNLQKLVEFAHENGINVVFVQEAHRKNDADFRVRPVHAVKGTWGSDFIPELRPDEEKGDYIVQKRRHSAFAYTDLDLYLREEKIDTVVVTGVWTNVCVRSTASDALYHAYNVIAISDCCASANEEMHQAGLRDMALFAEVMTLEEYMKEWPNREGAKK”, the protein production entry is recorded as “not failed”.

As to “MHHWVQASSSDFSGTPPQARSGHTAVNVGKSMVVVFGGLVDKKFLSDIIVYDIENKLWFEPECTGSESEGQVGPTPRAFHVAITIDCHMFIFGGRSGGKRLGDFWVLDTDIWQWSELTSFGDLPTPRDFAAAAAIGSQKIVLCGGWDGKKWLSDVYVMDTMSLEWLELSVSGSLPPPRCGHTATMVEKRLLVFGGRGGGGPIMGDLWALKGLIDEERETPGWTQLKLPGQAPSSRCGHTVTSGGHYLLLFGGHGTGGWLSRYDVYYNDTIILDRVTAQWKRLPIGNEPPPPRAYHTMTCIGARHLLIGGFDGKLTFGDLWWLVPEDDPIAKRSSVPQVVNPPEIKESERELDKERGQDGFSIVDLQQKMGISVSSGLRLQIPEESEDQEFVELGTRLIEGDVVDERASMIQMAAQALRQHWKQSTPRTLQLKELGSLLRDYQRLVTRIFTTQSSLTSADFGLPGTKTFTFYHIKSSSELRINDISKLLEEYKTLVI”, the protein production entry is given as “not failed”.

With “MQPFRVTLVEDEPSHATLIQYHLNQLGAEVTVHPSGSAFFQHRSQLSTCDLLIVSDQLVDLSIFSLLDIVKEQTKQPSVLILTTGRHELIESSEHNLSYLQKPFAISELRAAIDYHKPSMGVTMNV”, the protein production entry is “not failed”.

With “EERRVAYPVLRELTERTGETSALMVWNGNESMCVEQIPSRHQVKHLAPLGARYNEALSSSVQVFLASENEDRVRQLLRSGSITLTGVDEDAVEAYLLRLKESMERGWAVNFGETSIEEVGVASPVYDHRGNMVASVLIPAPKFRVSQDTLNSLGEACAAAAAKVTTRLGGRAPH”, the protein production entry is on record as “not failed”.

For the sequence “MKPVAPRSFFAMDFLEFITAWEGKWLSQRTNYSFEQNEAGNAKSDVTVQRWDSQTELGRSLLERAGLKNQGELILLQLSWDNSVDWGKSKQKGTIYYGFLPDADHGDRGQLWRGTTNSNLAFLRGDYHLGSDECLTLNLGDGETSLTERHWYASPNLRLRTSLIQQGEGYSHSAFYSDIRRLPPAE”, the protein production entry was “failed”.

In the case of “MGHHHHHHSHMASRVRVTILFATETGKSEALAWDLGALFSCAFNPKVVCMDKYRLSCLEEERLLLVVTSTFGNGDCPGNGEKLKKSLFMLKELNNKFRYAVFGLGSSMYPRFCAFAHDIDQKLSHLGASQLTPMGEGDELSGQEDAFRSWAVQTFKAACETF”, the protein production result is given as “failed”.

In the case of “MNPLKAGDIAPKFSLPDQDGEQVNLTDFQGQRVLVYFYPKAMTPGCTVQACGLRDNMDELKKAGVDVLGISTDKPEKLSRFAEKELLNFTLLSDEDHQVCEQFGVWGEKSFMGKTYDGIHRISFLIDADGKIEHVFDDFKTSNHHDVVLNWLKEHA”, the protein production entry is given as “not failed”.

On to “FGKVTSSQQVAQRLLQEMKGLQQEHLICIYLNTKNDIIQQKTIFKGSLNQSIAHPREIFREAVKYSSARILLAHNHPSGNPTPSPQDIQFTKRMEECGEMMGIQLLDHIILGDSGYISLREENFFASE”, for which the protein production result is “failed”.

Consider “MDTQSLVPLSTLKQGEKAYVVDLELNGLLRRRVLDLGIVPGTSLQCVGTAPAGDPIAYLVRGTVIALRSEDARSIRVNSALV”, for which the protein production result is listed as “failed”.

With “MKFRTLLVVNKVVVFAKLLSVLQKVEKTAFLILCSEADEEIRLVTKADAFNGLYTSALLRKSEFFEDYRIESKYHNLIGLEFQLSAFEDAIRASSNAAGVIMKLSKKEQACISFHIQTLTSNIIQDVPVRVITPTQIEELAEPNLPPCSGVVLSPLQKIAILIEKFRHVSQSIQLTLQSTQAAELHIKCHSETLEVETCIKGLKIVTLNSEESSSEIEQSTSASVDGRHLSKAMFAAYLIPQRAFCCKLSILNHGNIHWIH”, the protein production result is given as “failed”.

Take “MPLTPGTLLAGRYELLALLGEGGSAQVYRAQDGLLGREVALKVMHDYLPESDRSRFLREVRTLARLTHPGVVPVLDLGQEPEAGRPFFTMPLLTGGPITRLGPLEDAPGPLARFLTAAAFASRALHHVHSHGIVHRDLTPGNVLLDDTGLPRIMDFGLVALSEQTRHLTRSGVTLGTPAYMAPEQAKGGGVDARSDLYALGAVLYRVACGSPPFVGDSDQSVLYQHVYEPVPDPRDLNPAVPDAVARVLLWLLAKRADRRPQSGAALAHLWALARRDLWTTHARGQYRGGRARTGEHPDGPARVSDMQELWSVALPGEVTWPAAVVGEGDLVAVGTRGGQLVLTHTSGRPFATYAARDEVTAPATLIGGHVLYGAWDGTLRRVELQSGSEVWRHQARAEFTGAPTVWGGRLLAPSRDGHLHALSLRTGELAWAYRAGGSLAASPLVWAGAALQCDETGWLHALDARSGTPLWKVEVGTVHATPALLPGPPGTATLVIATWEGEVHAIGLEVQNGRAALAGEDAIRWTYDVEDEVWASPALTALDLPPDSGAAPDASAAPGGVVVVAGWGGKVRGLRLADGEDLWERTLDGRVTASPVISAGLVFLATEGGELLALDVRNGEVRWTCRERSGVQATPLAASGTLYVAFMDGTLRAYRNAHPEWRSEQEG”: the protein production result is on record as “failed”.
